Data set [1] concerns the molecule itself. The data set can be described thus: electron microscopy; cross-linked Dam1 complex on MTs examined by EM.
Data set [2] deals with the molecule itself. In words: TIRF microscopy, tracer residence time; GFP-tagged and unlabelled versions of the same mutant Dam1 complex mixed 1:100 to 2 nM in all (20 pM tracer), on immobilised MTs; BRB80, 0.8 mg/ml kappa-casein, 50 mM KCl, oxygen scavengers; concentrations that support oligomeric rings.

Positions count from the first letter of the chain named. Numbers in names are those of the source.

B1: Dam1 complex (complex, yeast)
chain 1: MDSASKEETLEKLDQEITVNLQKIDSNLSFCFHKITQDIIPHVATYSEICERIMDSTEWLGTMFQETGLVNLQANAAAPVGNAPVKSLVSNNVGIFPTSAEEASRQSQTDNGPNEADSAVHVNRDVHSMFNNDSIDDFHTANITSTGQILKLPDSSDEDTGSEAVPSREQTDLTGEGHGGADDEQDESTIQRQSRKRKISLLLQQQYGSSSSMVPSPIVPNKMRKQLAHEEHINNDGDNDDENSNNIESSPLKQGHHHPKGQADDNNEGPDEEESTKEVPKPGTIIHFSTNR
chain 2: MMASTSNDEEKLISTTDKYFIEQRNIVLQEINETMNSILNGLNGLNISLESSIAVGREFQSVSDLWKTLYDGLESLSDEAPIDEQPTLSQSKTK
chain 3: MDSIDEQIAIKRKELQSLQKITSLTDGLKIQLTELNEQIKEMGMNADSVAQLMNNWDSIINNISQASLGLLQYAEGDYEIGPWKDSKKKESEQSNETGLEAQENDKNDEDNDEDEDLVPLPETMVRIRVDGNE
chain 4: MEHNLSPLQQEVLDKYKQLSLDLKALDETIKELNYSQHRQQHSQQETVSPDEILQEMRDIEVKIGLVGTLLKGSVYSLILQRKQEQESLGSNSK
chain 5: MENPHEQVQANILSRIIGNVKRLNESVAILNQELVTINNRNKNLEIMGAICDNYHSSVQFNLEATNNKKPPL
chain 6: MSEDKAKLGTTRSATEYRLSIGSAPTSRRSSMGESSSLMKFADQEGLTSSVGEYNENTIQQLLLPKIRELSDSIITLDSNFTRLNFIHESLADLNESLGSLLYGIMSNSWCVEFSQAPHDIQDDLIAIKQLKSLEDEKNNLVMELSNMERGIKRKKDEQGENDLAKASQNKQFNQPLFPSSQVRKYRSYDNRDKRKPSKIGNNLQVENEEDYEDDTSSEASFVLNPTNIGMSKSSQGHVTKTTRLNNNTNSKLRRKSILHTIRNSIASGADLPIENDNVVNLGDLHPNNRISLGSGAARVVNGPVTKNRNSMFSGRAERKPTESRHSVAKKTEKKINTRPPFR
chain 7: MSEQSQLDDSTIDKLIPQIFNEMRSNLNNTTNKFPKSTGGGASDNISANSNSIRSFNSITTQSLLKESESLDKITAMIKNVTAALKNNLPVYVNQVHEVCKSTNSILDSWINIHSQAGYIHKLMSDQTYLKLINDRLHNENVNTNDEDGSTLHNVIALKKKEILDLRQKLENRKGEKDAAPAKPPNQGLNPRYGVQSGRRPVPSAGISNNGRVRKTHVPASKRPSGIPRVTNRWTKPTASSSRKMFR
chain 8: MNANKQRQYNQLAHELRELQTNLQETTKQLDIMSKQCNENLVGQLGKVHGSWLIGSYIYYMEQMLGKTQ
chain 9: MTDALEQSVLALEGTVSVLKDSVESLKCANEPSTNLASTMLQTKRVFRLVPEYDVERSKLDLIEEVEPLVRTLGDKLRKSMGRMQRELDTLQQTYELNDLRLKKNISMDDDDALNSPDMGQEYEGRDADDVVMMASSTNEELEELKKLKEKKKQLENKLEILKQK
chain 10: MGESLDRCIDDINRAVDSMSTLYFKPPGIFHNAILQGASNKASIRKDITRLIKDCNHDEAYLLFKVNPEKQSVSRRDGKEGVFDYVIKRDTDMKRNRRLGRPGEKPIIHVPKEVYLNKDRLDLNNKRRRTATTSGGGLNGFIFDTDLIGSSVISNSSSGTFKALSAVFKDDPQIQRLLYALENGSVLMEEESNNQRRKTIFVEDFPTDLILKVMAEVTDLWPLTEFKQDYDQLYHNYEQLSSKLRFIKKEVLLQDDRLKTMSQYHPSSSHDVAKIIRKEKDEIRRLEMEIANLQE
notes: Ten different subunits; also called Dam1 kinetochore complex; free Dam1 complex; copies: + + + + + + + + +
In the case of B1, in data set [1], the binding result was “binds”.

B2: Dam1-GFP CP complex, mock-treated (Dam1p S20A, Ask1p S200A, Spc34p T199A) (complex, yeast)
chain 1: B1 chain 1 with S200A
chain 2: B1 chain 2
chain 3: B1 chain 3
chain 4: B1 chain 4
chain 5: B1 chain 5
chain 6: B1 chain 6 with S20A
chain 7: B1 chain 7
chain 8: B1 chain 8
chain 9: B1 chain 9
chain 10: B1 chain 10 with T199A
notes: GFP-tagged complex, detected by its GFP; In the tracer assay 20 pM of this complex met 2 nM of the same mutant complex without GFP; also called Dam1 CP mock; Dam1 CP; source: recombinant Dam1 complex (E. coli BL21 Rosetta, purified); mock-treated with GST-Ipl1 and GST-Sli15 (554-698), distilled water in place of ATP; copies: + + + + + + + + +
Regarding B2, in data set [2], the “fold increase of the average residence time on MTs against single molecules” value (“fold increase” below) is > 5 fold.

B3: Dam1-GFP NP complex, mock-treated (Dam1p S257A, S265A, S292A, Ask1p S200A, Spc34p T199A) (complex, yeast)
chain 1: B1 chain 1 with S200A
chain 2: B1 chain 2
chain 3: B1 chain 3
chain 4: B1 chain 4
chain 5: B1 chain 5
chain 6: B1 chain 6 with S257A, S265A, S292A
chain 7: B1 chain 7
chain 8: B1 chain 8
chain 9: B1 chain 9
chain 10: B1 chain 10 with T199A
notes: GFP-tagged complex, detected by its GFP; In the tracer assay 20 pM of this complex met 2 nM of the same mutant complex without GFP; also called Dam1 NP mock; Dam1 NP; source: recombinant Dam1 complex (E. coli BL21 Rosetta, purified); mock-treated with GST-Ipl1 and GST-Sli15 (554-698), distilled water in place of ATP; copies: + + + + + + + + +
Regarding B3, in data set [2], the “fold increase” value is > 5 fold.

B4: Dam1-GFP CP complex, phosphorylated by Ipl1 (Dam1p S20A, Ask1p S200A, Spc34p T199A; Dam1p C-terminal sites phosphorylated) (complex, yeast)
chain 1: B1 chain 1 with S200A
chain 2: B1 chain 2
chain 3: B1 chain 3
chain 4: B1 chain 4
chain 5: B1 chain 5
chain 6: B1 chain 6 with S20A
chain 7: B1 chain 7
chain 8: B1 chain 8
chain 9: B1 chain 9
chain 10: B1 chain 10 with T199A
modifications: phosphoserine at S257, S265 and S292 (by Ipl1 kinase, nearly stoichiometric)
notes: GFP-tagged complex, detected by its GFP; In the tracer assay 20 pM of this complex met 2 nM of the same phosphorylated mutant complex without GFP; also called Dam1 CP phos; Dam1 CP; source: recombinant Dam1 complex (E. coli BL21 Rosetta, purified); phosphorylated with GST-Ipl1, GST-Sli15 (554-698) and 10 mM ATP, 90 min, 30 °C; copies: + + + + + + + + +
Take B4: in data set [2], the binding result is “binds”.

B5: Dam1-GFP NP complex, phosphorylated by Ipl1 (Dam1p S257A, S265A, S292A, Ask1p S200A, Spc34p T199A; Dam1p S20 phosphorylated) (complex, yeast)
chain 1: B1 chain 1 with S200A
chain 2: B1 chain 2
chain 3: B1 chain 3
chain 4: B1 chain 4
chain 5: B1 chain 5
chain 6: B1 chain 6 with S257A, S265A, S292A
chain 7: B1 chain 7
chain 8: B1 chain 8
chain 9: B1 chain 9
chain 10: B1 chain 10 with T199A
modifications: phosphoserine at S20 (by Ipl1 kinase, nearly stoichiometric)
notes: GFP-tagged complex, detected by its GFP; In the tracer assay 20 pM of this complex met 2 nM of the same phosphorylated mutant complex without GFP; also called Dam1 NP phos; Dam1 NP; source: recombinant Dam1 complex (E. coli BL21 Rosetta, purified); phosphorylated with GST-Ipl1, GST-Sli15 (554-698) and 10 mM ATP, 90 min, 30 °C; copies: + + + + + + + + +
For the protein B5, in data set [2], the “fold increase” value was 2 fold.

The values above are taken from PMC4660060, “The molecular architecture of the Dam1 kinetochore complex is defined by cross-linking based structural modelling” (Nature Communications, 2015).
